{"source": "patent US20090162369A1", "about": "“SYNTHETIC CHIMERIC PEPTIDES” (priority 2007, published 2009)", "key": {"p145": {"target": "p145 (Streptococcus pyogenes serotype M5, UniProt P02977)", "settings": "FIG. 3", "experimental": "The purified anti-TN peptide antibodies were tested for their ability to bind to p145."}, "multiple isolates of GAS": {"system": "multiple isolates of GAS", "settings": "Pruksakorn et al., 1994a; cited from earlier work"}, "GAS": {"system": "GAS", "settings": "cited from earlier work"}, "B10.BR mice": {"system": "B10.BR mice", "test": "Peptide-specific serum IgG titres of B10.BR mice immunised with peptides conjugated to diphtheria toxoid", "assay_type": "in vivo", "settings": "peptides conjugated to DT", "excerpt": "FIG. 9: The geometric mean of peptide-specific serum IgG titres of B10.BR mice immunised with different peptides conjugated to diphtheria toxoid (DT). Control mice were immunised with vehicle (PBS). Five mice were immunised per group and error bars show the standard error of the mean (SEM). The highest titres were obtained after primary immunisation plus two booster injections. Although titres had decreased 43 days after the final boost (Day 71), they remained reasonably high.\nFemale B10.BR mice were immunized with TN18, TN19, J18 and J19 peptides conjugated to diphtheria toxoid (DT). The following immunization protocol was used.\nThe peptide specific titres in the murine sera samples on day 35, after primary immunization and two boosters, were analyzed.\nThe self-peptide titres throughout the immunization protocol were analyzed at day 20, day 27, day 35 and day 71."}}, "data": [{"sequence": "LRRDLDAEDEAKKQVEKALEC [TN peptide 3]", "values": [{"measurement": "binding affinity of purified anti-TN peptide antibodies for p145", "setting": "p145", "result": "highest binding affinities"}]}, {"sequence": "LRRDLDAEREAKKQVERALEC [TN peptide 5]", "values": [{"measurement": "binding affinity of purified anti-TN peptide antibodies for p145", "setting": "p145", "result": "highest binding affinities"}]}, {"sequence": "LRRDLDASNEAKKQVEMALEC [TN peptide 14]", "values": [{"measurement": "binding affinity of purified anti-TN peptide antibodies for p145", "setting": "p145", "result": "highest binding affinities"}]}, {"sequence": "LRRDLDASREAKKQVEKALE [p145]", "values": [{"measurement": "opsonisation and killing of GAS by mouse antibodies raised against the peptide", "setting": "multiple isolates of GAS", "result": "can opsonise and kill multiple isolates of GAS"}, {"measurement": "inhibition of in vitro killing mediated by human sera", "setting": "GAS", "result": "can inhibit in vitro killing mediated by human sera"}]}, {"sequence": "LRRDLDASREAKNQVEMALEC [TN peptide 19]", "values": [{"measurement": "binding affinity of purified anti-TN peptide antibodies for p145", "setting": "p145", "result": "highest binding affinities"}]}, {"sequence": "LRRDLDASREAKNQVERALEC [TN peptide 18]", "values": [{"measurement": "binding affinity of purified anti-TN peptide antibodies for p145", "setting": "p145", "result": "highest binding affinities"}]}, {"sequence": "LRRDLDAVNEAKKQVEKALEC [TN peptide 7]", "values": [{"measurement": "binding affinity of purified anti-TN peptide antibodies for p145", "setting": "p145", "result": "highest binding affinities"}]}, {"sequence": "LRRDLDAVREAKKQVEMALEC [TN peptide 11]", "values": [{"measurement": "binding affinity of purified anti-TN peptide antibodies for p145", "setting": "p145", "result": "highest binding affinities"}]}, {"sequence": "QAEDKVKQSREAKNQVEMALKQLEDKVQ [J19]", "values": [{"measurement": "immunogenicity compared with the peptides disclosed in WO96/11944", "setting": "B10.BR mice", "result": "improved immunogenicity"}]}, {"sequence": "QAEDKVKQSREAKNQVERALKQLEDKVQ [J18]", "values": [{"measurement": "immunogenicity compared with the peptides disclosed in WO96/11944", "setting": "B10.BR mice", "result": "improved immunogenicity"}]}]}
